Entries after “also recorded” stand apart in the source; their conditions may differ. Where two headings read alike, the source gives them in different places.
What was measured:
[1] = test system: Spike (SARS-CoV-2) pseudotyped lentivirus; assay type: cell-based
[2] = test system: Mca-APK(Dnp) surrogate fluorogenic substrate; settings: 20 min reaction, compared with wild-type ACE2-Fc
Experimental: ACE2 peptidase activity measured using surrogate Mca-APK(Dnp). ACE2-Fc peptidase activity assay using surrogate fluorogenic substrate Mca-APK(Dnp) (Enzo Life Sciences, Farmingdale, N.Y.) was performed in black microtiter plates. The reaction buffer contained 50 mM 4-morpholineethanesulfonic acid, pH=6.5, 300 mM NaCl, 10 μM ZnC12, 0.01% Triton X-100 and 20 μM of Mca-APK(Dnp). The total reaction volume was 100 μL at room temperature and the duration of the reactions were 20 min. Peptidase activities were calculated as fluorescence intensity at 320 nm excitation and 420 nm emission wavelength.
In parallel, we performed ACE2 activity assays using either Mca-APK(Dnp) or synthetic Ang II peptide as substrate together with individual variants of ACE2-Fc as the enzyme. By using Mca-APK(Dnp), fluorescence signals at 328 nm excitation and 393 nm emission were recorded.

AngII = test: Phenylalanine Assay: ACE2 peptidase activity with AngII as substrate; settings: phenylalanine hydrolysis, 20 min, 37° C.
Experimental: (§1) ACE2 peptidase activity measured using physiological substrates of AngII and apelin-13. […] It involves two coupled reactions, hydrolysis of the C-terminus phenylalanine residues from the substrates by ACE2 catalysis and the measurement of free amino acid phenylalanine using yeast enzyme of phenylalanine ammonia lyase (PAL) in a colorimetric assay (supplementary Figure S2).
(§2) The reactions were carried out using indicated concentrations of ACE2-Fc proteins together with either AngII or apelin-13 at indicated concentrations in reaction buffer containing 20 mM Tris-HCl, pH=7.4, 136 mM NaCl and 10 μM ZnC12. The first reaction was proceeded at 37° C. after 20 min before stopped by 80° C. heat inactivation for 5 min. The second reaction used a phenylalanine detection kit (Sigma-Aldrich, St. Louis, Mo.). 1 μL enzyme mix and 1 μL developer from the kit were added to the above reaction, which was allowed to proceed for 20 min at room temperature. Fluorescence intensity was measured at 535 nm excitation and 585 nm emission wavelength, and all reactions were performed in triplicate.
(§3) We performed Mca-APK(Dnp) measurements, alongside phenylalanine hydrolysis assays using AngII and apelin-13 as substrates to determine the enzymatic activities of the ACE2-Fc variants (FIG. 2A-C). […] The first method used an excess amount of the enzyme (100 ng) in reactions with varying concentrations of the three substrates. This would potentially detect low partial activity of enzymes.

apelin-13 [3] = test: Phenylalanine Assay: ACE2 peptidase activity with apelin-13 as substrate; settings: phenylalanine hydrolysis, 20 min, 37° C.
Experimental: as §1, §2, §3

Mca-APK(Dnp) = settings: cited from earlier work
ACE2 = ACE2 (Homo sapiens, UniProt Q9BYF1); settings: cited from earlier work
ACE2, sequence (Q9BYF1 18-805): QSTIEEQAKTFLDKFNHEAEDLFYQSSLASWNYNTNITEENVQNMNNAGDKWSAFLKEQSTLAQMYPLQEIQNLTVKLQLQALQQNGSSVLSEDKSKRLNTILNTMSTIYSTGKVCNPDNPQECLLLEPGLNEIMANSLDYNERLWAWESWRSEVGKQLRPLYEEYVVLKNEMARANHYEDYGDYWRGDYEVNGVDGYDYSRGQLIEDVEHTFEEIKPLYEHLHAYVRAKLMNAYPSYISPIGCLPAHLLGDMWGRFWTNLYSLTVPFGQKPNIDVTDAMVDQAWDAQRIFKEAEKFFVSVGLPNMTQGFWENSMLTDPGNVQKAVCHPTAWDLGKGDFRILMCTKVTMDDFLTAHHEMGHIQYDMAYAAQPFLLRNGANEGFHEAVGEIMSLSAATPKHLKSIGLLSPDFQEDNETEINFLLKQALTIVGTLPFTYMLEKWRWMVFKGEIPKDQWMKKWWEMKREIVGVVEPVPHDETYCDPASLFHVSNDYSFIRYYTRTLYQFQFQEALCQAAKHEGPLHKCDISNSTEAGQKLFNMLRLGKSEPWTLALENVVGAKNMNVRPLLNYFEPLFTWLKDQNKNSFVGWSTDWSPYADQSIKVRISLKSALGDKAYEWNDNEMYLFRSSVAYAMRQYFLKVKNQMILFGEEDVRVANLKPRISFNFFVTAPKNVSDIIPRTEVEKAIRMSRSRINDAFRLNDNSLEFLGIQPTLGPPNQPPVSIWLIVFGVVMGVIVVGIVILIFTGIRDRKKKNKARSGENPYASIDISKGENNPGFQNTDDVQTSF

Ang II = test: Mass spectrometry analysis of peptides generated from Ang II by ACE2-Fc; settings: Ang II peptide as substrate
angiotensin I = angiotensin I (Homo sapiens, UniProt Q9BYF1); settings: cited from earlier work
angiotensin I, sequence (Q9BYF1 18-805): as above

angiotensin II = angiotensin II (Homo sapiens, UniProt Q9BYF1); settings: cited from earlier work
angiotensin II, sequence (Q9BYF1 18-805): as above

apelin-13 [4] = target: apelin-13 (Homo sapiens, UniProt Q9BYF1); settings: cited from earlier work
apelin-13 (Homo sapiens, UniProt Q9BYF1), sequence (Q9BYF1 18-805): as above

dynorphin-13 = dynorphin-13 (Homo sapiens, UniProt Q9BYF1); settings: cited from earlier work
dynorphin-13, sequence (Q9BYF1 18-805): as above

[5] = target: RBD of SARS-CoV-2 spike protein (Severe acute respiratory syndrome coronavirus 2, UniProt P0DTC2)
[6] = mice, up to two months; cited from earlier work
[7] = degradation of AngII by the fusion; cited from earlier work

## H378A: ACE2-Fc fusion with single alanine substitution of Zn2+-binding residue His378; loss-of-activity variant
[1]
  IC50 of pseudotyped viral transduction: 0.16 µg/mL
  inhibition of pseudotyped viral transduction (in words): could suppress the transduction of a pseudotyped virus
[2]
  peptidase activity toward surrogate substrate Mca-APK(Dnp): completely lost their enzymatic activity
[2]; listed as His378Ala
  peptidase activity toward surrogate substrate Mca-APK(Dnp): completely lack of peptidase activity
AngII
  peptidase activity toward AngII (Phe release): inactivate ACE2; also recorded: completely lost their enzymatic activity
AngII; listed as His378Ala
  peptidase activity toward AngII (Phe release): completely lack of peptidase activity
apelin-13 [3]
  peptidase activity toward apelin-13 (Phe release): inactivate ACE2; also recorded: completely lost their enzymatic activity
apelin-13 [3]; listed as His378Ala
  peptidase activity toward apelin-13 (Phe release): completely lack of peptidase activity

## H345L: Glasgow et al. ACE2 trap with H345L mutation at the catalytic center
Mca-APK(Dnp)
  activity against Mca-APK(Dnp) (Glasgow et al.): loss-of-activity

## CC(C)C[C@H](N[C@@H](Cc1cncn1Cc1cc(Cl)cc(Cl)c1)C(=O)O)C(=O)O [MLN-4760]
ACE2
  inhibition of ACE2: inhibited

## O=C(O)CN(CCN(CC(=O)O)CC(=O)O)CC(=O)O [EDTA]
ACE2
  inhibition of ACE2: inhibited

## H345A: ACE2-Fc fusion with single alanine substitution of His345
Ang II
  generation of Ang 1-7 from Ang II by mass spectrometry: full activity; also recorded: remained fully active
Ang II; listed as ACE2-Fc H345A
  generation of Ang 1-7 from Ang II by mass spectrometry: full activity

## E402A: ACE2-Fc fusion with single alanine substitution of Zn2+-binding residue Glu402; loss-of-activity variant
[1]
  IC50 of pseudotyped viral transduction: 0.25 µg/mL
  inhibition of pseudotyped viral transduction (in words): could suppress the transduction of a pseudotyped virus
[2]
  peptidase activity toward surrogate substrate Mca-APK(Dnp): completely lost their enzymatic activity
[2]; listed as Glu402Ala
  peptidase activity toward surrogate substrate Mca-APK(Dnp): completely lack of peptidase activity
AngII
  peptidase activity toward AngII (Phe release): inactivate ACE2; also recorded: completely lost their enzymatic activity
AngII; listed as Glu402Ala
  peptidase activity toward AngII (Phe release): completely lack of peptidase activity
apelin-13 [3]
  peptidase activity toward apelin-13 (Phe release): inactivate ACE2; also recorded: completely lost their enzymatic activity
apelin-13 [3]; listed as Glu402Ala
  peptidase activity toward apelin-13 (Phe release): completely lack of peptidase activity

## C[C@H](CS)C(=O)N1CCC[C@H]1C(=O)O [captopril]
ACE2
  inhibition of ACE2: not

## R273A
[1]
  IC50 of pseudotyped viral transduction: 0.19 µg/mL
  inhibition of pseudotyped viral transduction (in words): could suppress the transduction of a pseudotyped virus
Ang II
  generation of Ang 1-7 from Ang II by mass spectrometry: loss of activity
Ang II; listed as ACE2-Fc R273A
  generation of Ang 1-7 from Ang II by mass spectrometry: no Ang 1-7 signal was observed

## H374N/H378N: Glasgow et al. ACE2 trap with double mutations of the Zn2+-binding residues
Mca-APK(Dnp)
  activity against Mca-APK(Dnp) (Glasgow et al.): loss-of-activity

## angiotensin converting enzyme 2 [ACE2]
Angiotensin I
  Km: 6.9 µM
Angiotensin II
  Km: 2 µM
apelin-13 [4]
  Km: 6.8 µM
dynorphin-13
  Km: 5.5 µM

## NCCCC[C@H](N[C@@H](CCc1ccccc1)C(=O)O)C(=O)N1CCC[C@H]1C(=O)O [linosipril]
ACE2
  inhibition of ACE2: not

## wild-type ACE2-Fc: ectodomain of human ACE2 fused to the N-terminus of Fc domain of human IgG1; forms a dimer
[5]
  binding to SARS-CoV-2 spike RBD: highest binding affinity
[6]
  tolerability of repeated doses: well tolerated
[7]
  blood pressure control: blood pressure control for up to two weeks

Reference: patent US20230265407A1, “HUMAN RECOMBINANT ACE2-FC MUTANTS THAT DECOUPLE ANTI-SARS-COV-2 ACTIVITY FROM CARD[…]” (Northwestern University, priority 2020, published 2023)
